T1: Kv2.1 (endogenous, rat cortical neurons) (rat, UniProt P15387 1-857)
T1 construct: Endogenous channel in fixed, permeabilised primary cortical neurons of Sprague-Dawley rats, detected with a rabbit anti-Kv2.1 antibody; also called delayed-rectifying voltage-gated potassium channel Kv2.1
T1 sequence: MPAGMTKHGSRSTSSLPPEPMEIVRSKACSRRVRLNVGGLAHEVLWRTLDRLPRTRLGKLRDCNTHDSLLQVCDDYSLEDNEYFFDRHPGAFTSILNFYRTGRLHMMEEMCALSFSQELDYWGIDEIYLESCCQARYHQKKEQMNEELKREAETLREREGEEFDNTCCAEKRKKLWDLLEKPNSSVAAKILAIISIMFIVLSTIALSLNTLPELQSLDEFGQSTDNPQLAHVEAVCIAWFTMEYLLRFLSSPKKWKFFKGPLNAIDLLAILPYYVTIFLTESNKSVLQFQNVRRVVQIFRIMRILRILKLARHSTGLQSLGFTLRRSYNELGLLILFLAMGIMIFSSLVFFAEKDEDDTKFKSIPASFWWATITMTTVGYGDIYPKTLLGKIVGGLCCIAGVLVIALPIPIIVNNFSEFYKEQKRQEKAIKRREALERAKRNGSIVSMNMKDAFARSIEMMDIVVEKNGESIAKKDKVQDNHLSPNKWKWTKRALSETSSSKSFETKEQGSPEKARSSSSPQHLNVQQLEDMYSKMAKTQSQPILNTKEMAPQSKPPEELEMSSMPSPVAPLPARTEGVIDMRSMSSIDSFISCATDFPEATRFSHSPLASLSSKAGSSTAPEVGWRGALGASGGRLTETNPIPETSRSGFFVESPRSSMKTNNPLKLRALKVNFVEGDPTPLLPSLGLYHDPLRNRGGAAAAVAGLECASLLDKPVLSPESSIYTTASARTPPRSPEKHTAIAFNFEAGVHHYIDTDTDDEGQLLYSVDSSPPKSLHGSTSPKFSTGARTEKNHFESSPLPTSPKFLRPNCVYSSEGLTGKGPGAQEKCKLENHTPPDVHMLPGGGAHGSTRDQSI

T2: VAPA 1-242 expressed from pEGFP-N1-VAPA; 1-242 (Addgene #18874) in HEK293 cells (UniProt Q9Z270 1-242)
T2 construct: range 1-242; Used as a whole lysate of transfected HEK293 cells (1 mg/ml total protein), detected with anti-VAPA antibody; also called VAMP-associated protein A; VAPA proteins; not shown: EGFP implied by the vector name pEGFP-N1
T2 sequence (looked up): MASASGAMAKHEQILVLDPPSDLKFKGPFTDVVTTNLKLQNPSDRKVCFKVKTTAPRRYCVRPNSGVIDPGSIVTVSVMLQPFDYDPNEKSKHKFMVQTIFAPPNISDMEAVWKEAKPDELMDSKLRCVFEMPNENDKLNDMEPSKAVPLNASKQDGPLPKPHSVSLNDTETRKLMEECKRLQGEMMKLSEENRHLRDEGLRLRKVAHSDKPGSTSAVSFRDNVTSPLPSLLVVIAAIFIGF

B1: VAPA (endogenous, rat cortical neurons) (other, UniProt Q9Z270 2-249, looked up)
chain: ASASGAMAKHEQILVLDPPSDLKFKGPFTDVVTTNLKLQNPSDRKVCFKVKTTAPRRYCVRPNSGVIDPGSIVTVSVMLQPFDYDPNEKSKHKFMVQTIFAPPNISDMEAVWKEAKPDELMDSKLRCVFEMPNENDKLNDMEPSKAVPLNASKQDGPLPKPHSVSLNDTETRKLMEECKRLQGEMMKLSEENRHLRDEGLRLRKVAHSDKPGSTSAVSFRDNVTSPLPSLLVVIAAIFIGFFLGKFIL
notes: whole, on cells; Endogenous ER protein inside fixed, permeabilised neurons, detected with a mouse anti-VAPA antibody; also called VAMP-associated protein A
B2: non-canonical FFAT motif of Kv2.1 (SFISCAT) (peptide)
peptide: SFISCAT
notes: The text says it was tested on the peptide array
B3: non-canonical FFAT motif of Kv2.2 (SFTSCAT) (peptide)
peptide: SFTSCAT
B4: DP-2 peptide (SIDSFTS) (peptide)
peptide: SIDSFTS
notes: Synthesised and spotted on Celluspots membrane through a polyethylene glycerol spacer (peptide spot array); also called declustering peptide 2
B5: Ser to Asp mutant of DP-2 (DIDDFTD) (peptide)
peptide: DIDDFTD
B6: Ser to Glu mutant of DP-2 (EIDSFTE) (peptide)
peptide: EIDSFTE
B7: Ser to Glu mutant of DP-2 (SIDEFTS) (peptide)
peptide: SIDEFTS
B8: Ser to Asp mutant of DP-2 (SIDDFTS) (peptide)
peptide: SIDDFTS
B9: Ser to Asp mutant of DP-2 (DIDSFTS) (peptide)
peptide: DIDSFTS
B10: Ser to Glu mutant of DP-2 (EIDEFTE) (peptide)
peptide: EIDEFTE
B11: Ser to Asp mutant of DP-2 (SIDDFTD) (peptide)
peptide: SIDDFTD
B12: Ser to Asp mutant of DP-2 (DIDDFTS) (peptide)
peptide: DIDDFTS
B13: Ser to Glu mutant of DP-2 (EIDEFTS) (peptide)
peptide: EIDEFTS
B14: Ser to Glu mutant of DP-2 (EIDSFTS) (peptide)
peptide: EIDSFTS
B15: Ser to Asp mutant of DP-2 (SIDSFTD) (peptide)
peptide: SIDSFTD
B16: Ser to Glu mutant of DP-2 (SIDEFTE) (peptide)
peptide: SIDEFTE
B17: Ser to Asp mutant of DP-2 (DIDSFTD) (peptide)
peptide: DIDSFTD
B18: Ser to Glu mutant of DP-2 (SIDSFTE) (peptide)
peptide: SIDSFTE

Tests used:
[1] = molecular target: T1, Kv2.1 (endogenous, rat cortical neurons); experiment: proximity ligation assay in fixed rat cortical neurons
Method: Duolink proximity ligation assay (PLA) technology (Sigma-Aldrich, St. Louis, Mo.) was utilized to assess in situ protein-protein interaction between Kv2.1 and vesicle-associated molecular protein (VAMP)-associated protein A (VAPA). Primary cortical neurons on glass coverslips were treated in 24-well plates with vehicle (dH₂O), TAT-Sc-2 (10 μM), or TAT-DP-2 (10 μM) for 2 hours at 37° C./5% CO₂. Neurons were then rinsed with 2 mL ice-cold sterile PBS and then transferred to 1 mL 4% paraformaldehyde (PFA) in PBS for 20 minutes to fix. Coverslips were transferred to 1 mL 0.1 M glycine (in PBS) to quench fixation and rinsed three times in 1 mL PBS. Membrane permeabilization was accomplished with 1 mL 0.25% Triton X-100 (Sigma-Aldrich, St. Louis, Mo.) and non-specific binding was blocked with 10% bovine serum albumin (in PBS) for 30 minutes. Primary immunolabeling was accomplished by 18-24 hour exposure to rabbit anti-Kv2.1 polyclonal antibody (1:500 in 3% BSA; RRID AB_2040162; Alomone Labs, Jerusalem, Israel), mouse anti-VAPA monoclonal antibody (1:500 in 3% BSA; RRID AB_2722702; UC Davis/NeuroMab Facility), and chicken anti-MAP2 polyclonal antibody (1:1000 in 3% BSA; RRID AB_5392; Abcam, Cambridge, Mass.) in 3% BSA (in PBS) at 4° C. under gentle agitation. […]

[2] = molecular target: T2, VAPA 1-242 expressed from …; experiment: peptide spot array (far western) with lysate of HEK293 cells expressing VAPA 1-242, anti-VAPA detection
Method: Standard 9-fluorenylmethoxy carbonyl chemistry was used to synthesize peptides and spot them onto Celluspots nitrocellulose disks prederivatized with a polyethylene glycerol spacer (Intavis), using the Respep peptide synthesizer. The peptides were spotted on 20 membranes fitted on microscope glass slides (Intavis) using an Intavis MultiPep robot. For hybridization and immunoblotting of arrays, Celluspots slides were washed in TBST (50 mM Tris-HCl, pH 7.4, 150 mM NaCl, 0.1% Tween 20) for 10 minutes, […] blocked for 1 hour at room temperature (RT) with gentle shaking in TBST containing 5% nonfat dry milk. Lysates from HEK293 cells transfected as before (Yeh et al., J Neurosci. 37: 5648-5658, 2017; Yeh et al., Proc Natl Acad Sci USA. 116: 15696-15607, 2019; Dustrude et al., Proc Natl Acad Sci USA. 113: E8443-E8452, 2016) with pEGFP-N1-VAPA; 1-242 (Addgene #18874) were made in 20 mM Tris, 50 mM NaCl, 2 mM MgCl₂, 1% Tergitol, 0.5% sodium deoxycholate, 0.1% sodium dodecyl sulfate with protease (Cat #B14002, Bimake), phosphatase (Cat #B15002, Bimake) inhibitor cocktails and 5 U/ml of universal nuclease (Cat #88702, Thermofisher) added extemporaneously. The concentration of lysates was measured by BCA (Cat #23227, Thermofisher) and peptide arrays were incubated with 1 mg/ml of total protein overnight at 4° C. (Yeh et al., J Neurosci. 37: 5648-5658, 2017; Yeh et al., Proc Natl Acad Sci USA. 116: 15696-15607, 2019; Moutal et al., Pain. 158: 2203-2221, 2017). Peptide arrays were washed 3 times for 5 minutes at RT with TBST and incubated with the primary antibody anti-VAPA (RRID AB_2722707; UC Davis/NIH NeuroMab Facility) for 2 hours at RT with gentle shaking in TBST, 5% BSA. After washing with TBST, the membranes were incubated in secondary antibody (IRDye® 800CW goat anti-mouse IgG secondary antibody; RRID AB_621842; Li-Cor) for 45 minutes, washed 3 times for 5 minutes in TBST, and visualized by infrared fluorescence (Li-Cor). Four independent peptide spot arrays were used in this study. Fluorescence intensity was analyzed with Image studio (Li-Cor).

| Binder | binding result [1] | binding result [2] |
| --- | --- | --- |
| B1 | binds | – |
| B2 | – | no binding (tested: lysate at 1 mg/ml of total protein) |
| B3 | – | no binding (tested: lysate at 1 mg/ml of total protein) |
| B4 | – | no binding (tested: lysate at 1 mg/ml of total protein) |
| B5 | – | no binding (tested: lysate at 1 mg/ml of total protein) |
| B6 | – | no binding (tested: lysate at 1 mg/ml of total protein) |
| B7 | – | no binding (tested: lysate at 1 mg/ml of total protein) |
| B8 | – | no binding (tested: lysate at 1 mg/ml of total protein) |
| B9 | – | no binding (tested: lysate at 1 mg/ml of total protein) |
| B10 | – | no binding (tested: lysate at 1 mg/ml of total protein) |
| B11 | – | no binding (tested: lysate at 1 mg/ml of total protein) |
| B12 | – | no binding (tested: lysate at 1 mg/ml of total protein) |
| B13 | – | no binding (tested: lysate at 1 mg/ml of total protein) |
| B14 | – | no binding (tested: lysate at 1 mg/ml of total protein) |
| B15 | – | no binding (tested: lysate at 1 mg/ml of total protein) |
| B16 | – | no binding (tested: lysate at 1 mg/ml of total protein) |
| B17 | – | no binding (tested: lysate at 1 mg/ml of total protein) |
| B18 | – | no binding (tested: lysate at 1 mg/ml of total protein) |
